The nanobody polyreactivity screen of Harvey et al. (2022)

Assay: yeast display, Sf9 membrane polyspecificity reagent, FACS + sequencing; frameworks hold sequencing errors
Outline: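 In a synthetic yeast display library (Saccharomyces cerevisiae BJ5465), nanobody expression was induced with galactose for 36–48 hours. FACS gates were set low and high (top ~1%) using anti-HA fluorescence for expression and streptavidin fluorescence for binding of the Sf9 membrane reagent. Each polyreactivity label is drawn from the gate of origin.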

Sequence | polyreactivity (PSR sort gate)
QVQLVESGGGLVQAGGSLRLSCAASGSTFYGNAMGWYRQAPGKERELVAAITWGDASTYYADSVKGRFTISRDNAKNTVYLQMNSLKPEDTAVYYCAADFYYAYYWGQGTQVTVSS | low polyreactivity
QVQLVESGGGLVQAGGSLRLSSAASGRIFWTNAMGWYRQAPGKERELVAGITWRGGSTYYADSVKGRFTISRDNAKNTVSLQMNSLKPEDTAVYYCASRQGWYSGFDYWGQGTQVTVSS | high polyreactivity
QVQLVESGGGLVQAGGSLRLSCAASGFTYYIYAMGWYRQAPGKERELVAAISRSAGITNYADSVKGRFTISRDNAKNTVYLQMNSLKAEDTAVYYCAAEVGYWGYQISGDYWGQGTQVTVSS | low polyreactivity
QVQLVESGGGLVQAGGSLRLSCAASGSTFIYYTMGWYRQAPGKERELVAAIPSSGGSTYYADSVKGRFTISRDNAKNTVYLQMNSLKPEDTAVYYCAADGTYIKFAKLYRRYDYWGQGTLVTVSS | low polyreactivity
QVQLVESGGGLVQAGGSLRLSCAASGSIFAFYVMGWYRQAPGKERELVAAINRGGTNTYYADSVKGRFTISRDNGKNTVYLQMNSLKPEDTAVYYCAAQRYGGMDYWGQGTQVTVSS | high polyreactivity
QVQLVESGGGLVQAGGSLRLSCAPSGSTFYVNTMGWYRQAPGKERELVAAITATGASTYYADSVKGRFTISRDNAKNTVYVQMNSLKPEDTAVYYCNVRLRIRSGYWGQGTQVTVSS | high polyreactivity
QVKLVESGGGLVQAGGSIRLSCAASGSIFWYYAMGWYRQAPGKERELVATITSGGSTSYADSVKGRFTISRDNAKNTVYLQMKSLKPEDTAVYYCAAARLFTTYDWGQGTQVTVSS | low polyreactivity
QVQLVESGGGLVQAGGSLRLSCAASGIIFVYNAMGWYRPAPGKARELVAAINWRGDGTYYADSVKGRFTISRDNAKNTVYLQMNCLKPEDTAVYYCNAVRFRPNSHYRPVGYDYWGQGTQVTVSS | low polyreactivity
QVQLVESGGGLVQAGGSLRLSCAASGRIFWINAMGWYRQAPGKERELVATISSGSTSYADSVKGRFTISRDNAKNTVYLHLNSLKPEDTAVYYCAVSLRYTRSGAYYYWGQGTQVTVSS | low polyreactivity
QVQLVESGGGLVQAGGSLRLSCAATGSTFRKYAMGWYRQAPGKEREFVAAISSAGGRTYYADSVKGRFTISRDNAKNTVYLQMNSLKPEDTAVYYCNAYFRYSYDYWGQGTQVTVSS | high polyreactivity
QVQLVESGGGLVQAGGSLRLSCAASGFIFRNYAMGWYRQAPGKERELVASISRGTSTNYADSVKGRFTISRDNAKNTVDLQMNSLKPEDTAVYYCAVGRYPYGSARYGFDYWGQGTQVSVSS | high polyreactivity
QVQLVESGGGLVQAGGSLSLSCAASGSTFWVYAMGWYRQAPGKERELVATISRGGSTNYADSVKGRFTISRDNAKNTVYLQMNSLKPEDTAVYYCAAPRFYGYGYEYWGQGTQVTVSS | low polyreactivity
KLQLVESGGGLVQAGGSLRLSCADSGRIFQGNAMGWYRQAPGKERELVAAITYSGRSTFYADSVKGRFTISRDNAKNTVYLQMNRLKPEDTAFYYCAARQYWTTDLPFQRYYYWGQGTQVTVSS | low polyreactivity
QVQLVESGGGLVQAGCSLRLSCAASGLIFGRNVMGWYRQAPGKERELVAAISWSGGRTYYADSVKGRFTISRDNAKNTVYLQMNSLKPEDTAVYYCATDRSTRTYRSPYDYWGQGTQVTVSS | high polyreactivity
QVQRVESGGGLVQAGGSLRLSCAASGRIFSLNAMGWYRQAPGKEREFVAAISTSSGTTYYADSVKGRFTISRDNAKNTVYLQMNSLKPEDTAVYYCAAKRPSRYYPYRWGFDYWGQGTQVTVSS | high polyreactivity
QVQLVESGGGLVQAGGSLRLSCDDSGFIFFDYAMGWYRQAPGKEREFVAAISTRGGSTYYADSVKGLFTISRDNAKNTVYLQMNSLKPEDTSVYYCNARTIRPWGENGYWGQGTQVSVSS | high polyreactivity
QVQLVESGGGLVQAGGSLRLSCAASGSIFGYNDMGWYRQAPGKERELVAAIDWSDDITYYADSVKGRFTISRDNAKNTVYLQMNSLKPEDTAVYYCATKIRLALYFGYVSEYDYWGQGTQVTVSS | high polyreactivity
QVQLVESGGGLVQAGGSLRLSCAASGIIFTYYAMGWYRQAPGKERELVAAISYRGGSTYYADSVKGRFTISRDNAKNTVYLQMNSLKPEDTAVYYCNARYFRHYDYWGQGTQVTVSS | high polyreactivity
QVQLVESGGGLVQAGGSLRLSCAASGRTFRWYGMGWYRQAPGKEREFVAAISFRGGTTYYADSVKGRFTISRDNAKNTVYLQMNSLKPEDTAVYYCAARYGYYTSDYKYYYWGQGTQVTVSS | high polyreactivity
QVKLVESGGGLDQAGGSLRLSCAAYGSIFGDYVMGWYRQAPGKEMEFVAAISGSGGSTYYADSVKWRFTISRVNAKNTVYLQMNCLKPEDTAVYYCSTSGPQYYSRNLDYWGQGTQVTVSS | low polyreactivity
QVHLVESGGGLVQAGGSLRLSCAASGLIFVYNAMGWYRQAPGKERELVAGITSGGSTYYADSVKGRFTISRDNAKNTVYLQMNSLKPEDTAVSYCAAGYYDLYLWWGYDYWGQGTQVTVSS | high polyreactivity
QVQLEESGGGLVQAGGSLRLSCAASGSIFDYYAMGWYRKATGKERELVAAISWSGGSTYYADSVKGRFTISRDNAKNTVYLKMIILKPEDTAVYYCAADSSGIGYSSLYFNWGQGSQVTVSS | low polyreactivity

Sequence | polyreactivity (PSR sort gate)
QVQLVESGGGLVQAGGSLRLSCAASGRTFYYNAMGSYRQAPGKEREFVAAITWSGTRTYYADSVKGRFTISRDNAKNTVYLQMNSLKPEDTAVYYCAARRGVQGTQYYYWGQGTQVTVSS | high polyreactivity
QVQLVESGGGLVQAGGSLRLSCAASGFTFYTNAMGLSRQAPGKERELVAAISQRGASTYYADSVKGRFTISRDNAKNTFYLEMTSLKPEDTAVYYCAASSRTHGSYYYWGQGTQVTVSS | high polyreactivity
QVQLVESAGGLVQAGGSLRVSCAASGSTFSRYTMGWYRQAPGKERELVAAIRWSSGRTYYADSVKGRFTISRDNAKNTVYLQMNSLKPEDTAVYYCAALFPRGQADYAYWGQGTPVTVSS | high polyreactivity
QVQLVESGGGLVPAGGSRRLSCAASGSIFTSYAMGWYRQAPGKERELVAAISSSGGSTYYADSVSGRFTISRDNAKQTVYFQMNSLKPEDTAVYYCAARYKGVYAPHYYWGQGTQVTVSS | high polyreactivity
QVQLVESGGGLVQAGGRLRLSCAASGSILGAYTMGWYRQAPGKERELVAAITRRGGSTYYSDSVKGRFTISRDNAKNTVYLQMNSLKPEDTAVYYCNAEYGVWYDYLVGPYDYWGQGNQVTVSS | low polyreactivity
QVKLLDSGGGLVQAGGSLRLSCSASGFTFNNYAMVWYRQAPGKERELVAAISWAGGSTYYADSVKGRFTISRDNAKNTVYLQMNTLKPEDTAVYYCAKRIRYTTRPTYGFYYWGQGTQVTVSS | high polyreactivity
QVQLVESGGGLVQEGGSLRLSCASSGSTFPRYVMGWYRKQTGTESELVAAISSSSGRTFYADSVKGRFTISRDNAKNTVYLQMNSLKPEDTAVYYCAARTSFNVHYWGQGTQVTVSS | high polyreactivity
QVQLVESGGGLVQAGGSLRLSCAASGSTFGNNAMGWYRPAPGKERELVAGIRRSSNTYYADSVKGRFTISRDNAKNTVYLQMNSLKPEDTAVYCCNADNILYGSTLDYWGQGTQVTVSS | low polyreactivity
QVQLVESGGGLVQAGGSLRLRCAASGFIYLKYDMGWYRQAPGKERELVDRITSTGGSTYYADSVKGRFTISRDNAKNTVYLQMNSLKPEDTAVYYCAAVYISRNFFGRARGDYWGQGTQVTVSS | low polyreactivity
QVQLVESGGGLVQAGGSLRLSCAASGSIFSSYAMGWYRQAPGKERELVAAISQSGGDTYYADSVKGRFTISRDNAKNTVYLQMNSLKPEDTAVYYCAASFWYYPMDYWGQGTQVTVSS | low polyreactivity
QVQLVESVGGLVQAGGSLRLSCAASGSTFGYNAMGWYRKAPGKERELVAGITSSGGSTYYADSVKGRFTISRDNAKNTVYLQMNSLKPEDTAVYYCAKAFYRHSSPNNSEYWGQGTQVTVSS | low polyreactivity
QVQLVESGGGLVQAGGSLRLSCAASGFISGFYGMGWYRQAPGKEREFVAAIDFIDGDTYYADSVKGRFTISRDNAKNTVYLQMNSLKPEDTAVYYCAADGSFWQFDYWGQGTQVTVSS | low polyreactivity
QVQLVESGGGLVQAGGSLRLSCAASGFIIPGYAMGWYRQAPGKEREFVAAISRSGGSTYYADSVKGRFTISRDNAKNTVYLQMNSLKPEDSAVYYCATRARGYTGYDYWGQGTQVTVSS | high polyreactivity
QVQLVESGAGLVQAGGSLRLTCAASGFIFRDYAMGGYRQAPGKDRELVAAISSGDSTNYADSVKGRFTISRDNAKNTVYLLMNSLKPEDTAVYYCAADQVQYTGYTEYDWGQGTQVTVSS | low polyreactivity
QVQLVESGGGLVQAGGSLRLSCAASGRIFGTNAMGWYRPAPGKERELVADITSGGSTNYADSVKGRFTISRDNAKNTVYLQMNSLKPEDTAVYYCAAVLYSRLYWYRLDYWGQGTQVTVSS | low polyreactivity
QVQLVESGGGLVQAGGSLRLSCAASGSIFTPYAMGWYRQAPGKEREVVATITWTGGSTYYADSVKGRFTISRDNAINTVYLQMNSLKPEDTAVYYCAADTYRSGRAYYYWGQGTQVTVSS | low polyreactivity
QVQLVESGGGLVQAGGSLRLSCAASGLTFDAYAMGWSRPAPGKERELVAAISWSGGSTYYAASVKGRFTISRDNAKNTVYLQMNSLKPEDTAVYYCNARYAQFRYWGQGTQVTVSS | high polyreactivity
QVQLVESSGGLVQAGGSLRLSCAHSGIIFYCYAMGCYRHSPGNLRELVAAISNNGGSTYPDSVKGRFTISRDNAKNTVYLQMNSLKPEDTAVYYGDAHPTGGVGFDAYYWGQGTQVTVSS | low polyreactivity
QVQLVESGGGLVQAGGSLRLSCAASGRIFGPNAMGWYRQAPGKERELVAAITGSGGSTYADSVKGRFTISRDNAKNTVYLQMNSLKREDTAVYYCAKKTWYSYYWGQGTQVTVSS | high polyreactivity
QVQLVESGGGLVQAGGSLRLSCAASGSTFNDNAMGWYRQAPGKERELVAGISYSGGSTYYADSVKGRFTISRDNAKNTVYLQMNSLKPEDTAVYYCNADVTGLSQFGYWGQGTQVTVSS | low polyreactivity
QVQLVESGGGLVQAGGSLRLICAASGIIFYKYTMGWYRQAPGKERELVAAITKSGVRTYYADSVKGRFTISRDNAKNTVYLQMNSLKPEDTAVYYCAAKTPTKDRGSDFDYWGQGTQVTVSS | high polyreactivity
